In assay [1] the target is T1, displayed FcCH3A, A216 (E357G/S364W/K370E), on yeast cell surface (human, UniProt P0DOX5 227-449 = IgG part).
T1 construct: also called A216 CH3A chain (yeast)
T1 Fc: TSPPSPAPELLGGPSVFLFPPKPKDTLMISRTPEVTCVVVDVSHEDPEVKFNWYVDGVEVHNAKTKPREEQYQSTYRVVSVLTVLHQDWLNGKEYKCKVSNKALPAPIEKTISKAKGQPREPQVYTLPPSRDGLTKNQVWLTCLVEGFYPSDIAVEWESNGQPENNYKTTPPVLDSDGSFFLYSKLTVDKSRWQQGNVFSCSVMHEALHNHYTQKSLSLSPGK
Kind of assay: flow cytometry of diploid yeast: MFI of Flag-tagged secreted FcCH3B held on displayed FcCH3A (anti-Flag mouse mAb and PE anti-mouse antibody), normalised to EW-RVT = 100 %. The source says:
(§1) FACS was sequentially performed four times. […] Table 9 below summarizes the mutation pairs introduced into individual clones selected from the respective LibA2 and LibB2 libraries.
(In general: In flow cytometry, cells or beads pass a laser one at a time.)

Assay [2] has as its target T2, displayed FcCH3A, KiH (Genentech) (T366S/L368A/Y407V), on yeast cell surface (human, UniProt P0DOX5 227-449 = IgG part).
T2 construct: also called KiH CH3A chain (yeast)
T2 Fc: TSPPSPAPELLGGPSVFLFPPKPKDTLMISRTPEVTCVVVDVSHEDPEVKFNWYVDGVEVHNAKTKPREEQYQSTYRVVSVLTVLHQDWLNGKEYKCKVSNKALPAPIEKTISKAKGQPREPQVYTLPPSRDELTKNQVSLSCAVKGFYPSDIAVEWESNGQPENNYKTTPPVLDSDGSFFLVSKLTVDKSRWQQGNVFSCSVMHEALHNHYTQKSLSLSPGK
Kind of assay: flow cytometry histogram (PE, FL2-H) of diploid yeast: Flag-tagged secreted FcCH3B held on displayed FcCH3A, anti-Flag mouse mAb and PE anti-mouse antibody. As to the method:
Specifically, the diploid in which the expression of the heterodimeric heavy chain constant region was induced was reacted with an antibody recognizing flag-tag included in the secreted FcCH3B (anti-Flag mouse mAb, F3165) (Sigma-Aldrich) and an antibody conjugated with PE (phycoerythrin conjugated anti-mouse mAb, sc-3738) (Santa Cruz biotechnology), and a signal of PE was analyzed by flow cytometry.

Assay [3] deals with T3, displayed FcCH3A, B212 (K392I/D399L), on yeast cell surface (human, UniProt P0DOX5 227-449 = IgG part).
T3 construct: also called B212 CH3A chain (yeast)
T3 Fc: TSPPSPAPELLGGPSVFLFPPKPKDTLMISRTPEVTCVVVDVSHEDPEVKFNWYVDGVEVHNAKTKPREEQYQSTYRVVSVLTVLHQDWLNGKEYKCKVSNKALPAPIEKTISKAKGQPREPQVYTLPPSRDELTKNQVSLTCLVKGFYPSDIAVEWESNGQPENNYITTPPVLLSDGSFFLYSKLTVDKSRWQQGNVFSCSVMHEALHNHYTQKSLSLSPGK
Kind of assay: flow cytometry of diploid yeast: MFI of Flag-tagged secreted FcCH3B held on displayed FcCH3A (anti-Flag mouse mAb and PE anti-mouse antibody), normalised to EW-RVT = 100 %.
Text: as §1

For assay [4], the target named is T4, displayed FcCH3A, B239 (K392L/D399L), on yeast cell surface (human, UniProt P0DOX5 227-449 = IgG part).
T4 construct: also called B239 CH3A chain (yeast)
T4 Fc: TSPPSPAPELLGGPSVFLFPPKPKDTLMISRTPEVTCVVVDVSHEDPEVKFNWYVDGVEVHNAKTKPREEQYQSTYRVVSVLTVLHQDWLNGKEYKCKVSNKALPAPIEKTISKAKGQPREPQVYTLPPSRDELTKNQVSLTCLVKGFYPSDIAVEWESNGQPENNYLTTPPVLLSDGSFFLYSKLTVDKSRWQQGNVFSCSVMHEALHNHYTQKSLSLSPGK
The assay is described as above.
Text: as §1

Assay [5] deals with T5, displayed FcCH3A, B215 (K392R/K409R/D399L), on yeast cell surface (human, UniProt P0DOX5 227-449 = IgG part).
T5 construct: also called B215 CH3A chain (yeast)
T5 Fc: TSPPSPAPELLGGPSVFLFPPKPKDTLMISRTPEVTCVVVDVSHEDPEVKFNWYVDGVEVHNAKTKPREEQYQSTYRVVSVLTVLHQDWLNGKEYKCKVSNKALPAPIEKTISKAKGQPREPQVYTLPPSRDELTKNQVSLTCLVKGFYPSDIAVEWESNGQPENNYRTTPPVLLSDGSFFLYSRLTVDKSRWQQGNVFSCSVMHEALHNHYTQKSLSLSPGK
The assay is described as above.
Text: as §1

The target of assay [6] is T6, displayed FcCH3A, A241 (E357N/S364W/K370E), on yeast cell surface (human, UniProt P0DOX5 227-449 = IgG part).
T6 construct: also called A241 CH3A chain (yeast)
T6 Fc: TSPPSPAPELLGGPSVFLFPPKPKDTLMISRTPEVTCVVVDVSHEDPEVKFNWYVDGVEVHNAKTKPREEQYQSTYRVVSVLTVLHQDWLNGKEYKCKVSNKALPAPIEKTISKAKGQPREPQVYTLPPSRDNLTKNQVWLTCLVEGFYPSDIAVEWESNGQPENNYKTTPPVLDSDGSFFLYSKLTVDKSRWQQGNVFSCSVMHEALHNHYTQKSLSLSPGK
Described as above.
Text: as §1

In assay [7] the target is T7, B168w/oW-VT (displayed FcCH3A on yeast cell surface).
T7 construct: also called B168w/oW-VT CH3A chain (yeast), D399L
T7 Fc: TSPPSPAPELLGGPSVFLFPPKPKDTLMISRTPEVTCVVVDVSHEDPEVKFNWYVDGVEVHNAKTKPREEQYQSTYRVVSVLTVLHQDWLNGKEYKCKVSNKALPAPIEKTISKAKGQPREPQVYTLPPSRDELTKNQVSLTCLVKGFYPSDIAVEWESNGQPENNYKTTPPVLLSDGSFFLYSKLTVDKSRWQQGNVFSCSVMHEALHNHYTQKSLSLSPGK
The assay is described as above.
Text: as §1

In assay [8] the target is T8, displayed FcCH3A, B235 (K392C/D399L), on yeast cell surface (human, UniProt P0DOX5 227-449 = IgG part, chain 1 pos 168 (K392C): said to form an inter-chain disulfide with D399C of the CH3B partner).
T8 construct: also called B235 CH3A chain (yeast)
T8 Fc: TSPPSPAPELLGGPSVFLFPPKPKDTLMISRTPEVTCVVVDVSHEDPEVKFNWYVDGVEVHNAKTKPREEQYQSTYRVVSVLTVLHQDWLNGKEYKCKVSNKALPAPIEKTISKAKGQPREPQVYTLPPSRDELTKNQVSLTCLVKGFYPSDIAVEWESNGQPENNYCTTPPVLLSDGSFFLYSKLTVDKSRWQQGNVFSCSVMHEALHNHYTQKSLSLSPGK
The assay is described as above.
Text: as §1

Data on eight molecules can be found in patent US20180346600A1 (AJOU UNIVERSITY INDUSTRY ACADEMIC COOPERATION FOUNDATION, published 2018).

B1: secreted FcCH3B, A216 (E357N), from yeast (other)
chain: TSPPSPAPELLGGPSVFLFPPKPKDTLMISRTPEVTCVVVDVSHEDPEVKFNWYVDGVEVHNAKTKPREEQYQSTYRVVSVLTVLHQDWLNGKEYKCKVSNKALPAPIEKTISKAKGQPREPQVYTLPPSRDNLTKNQVSLTCLVKGFYPSDIAVEWESNGQPENNYKTTPPVLDSDGSFFLYSKLTVDKSRWQQGNVFSCSVMHEALHNHYTQKSLSLSPGK
notes: also called A216 CH3B chain (yeast); not shown: flag-tag
In the case of B1, the binding result in assay [1] is recorded as “binds”.

B2: secreted FcCH3B, KiH (Genentech) (T366W), from yeast (other)
chain: TSPPSPAPELLGGPSVFLFPPKPKDTLMISRTPEVTCVVVDVSHEDPEVKFNWYVDGVEVHNAKTKPREEQYQSTYRVVSVLTVLHQDWLNGKEYKCKVSNKALPAPIEKTISKAKGQPREPQVYTLPPSRDELTKNQVSLWCLVKGFYPSDIAVEWESNGQPENNYKTTPPVLDSDGSFFLYSKLTVDKSRWQQGNVFSCSVMHEALHNHYTQKSLSLSPGK
notes: also called KiH CH3B chain (yeast); not shown: flag-tag
As to B2, in assay [2], the binding result is recorded as “binds”.

B3: secreted FcCH3B, B212 (D399G/K392G/K409M), from yeast (other)
chain: TSPPSPAPELLGGPSVFLFPPKPKDTLMISRTPEVTCVVVDVSHEDPEVKFNWYVDGVEVHNAKTKPREEQYQSTYRVVSVLTVLHQDWLNGKEYKCKVSNKALPAPIEKTISKAKGQPREPQVYTLPPSRDELTKNQVSLTCLVKGFYPSDIAVEWESNGQPENNYGTTPPVLGSDGSFFLYSMLTVDKSRWQQGNVFSCSVMHEALHNHYTQKSLSLSPGK
notes: also called B212 CH3B chain (yeast); not shown: flag-tag
For the molecule B3, the binding result in assay [3] is recorded as “binds”.

B4: secreted FcCH3B, B239 (D399S/K392G/K409M), from yeast (other)
chain: TSPPSPAPELLGGPSVFLFPPKPKDTLMISRTPEVTCVVVDVSHEDPEVKFNWYVDGVEVHNAKTKPREEQYQSTYRVVSVLTVLHQDWLNGKEYKCKVSNKALPAPIEKTISKAKGQPREPQVYTLPPSRDELTKNQVSLTCLVKGFYPSDIAVEWESNGQPENNYGTTPPVLSSDGSFFLYSMLTVDKSRWQQGNVFSCSVMHEALHNHYTQKSLSLSPGK
notes: also called B239 CH3B chain (yeast); not shown: flag-tag
Turning to B4, in assay [4], the binding result is recorded as “binds”.

B5: secreted FcCH3B, B215 (D399W/K392G/K409M), from yeast (other)
chain: TSPPSPAPELLGGPSVFLFPPKPKDTLMISRTPEVTCVVVDVSHEDPEVKFNWYVDGVEVHNAKTKPREEQYQSTYRVVSVLTVLHQDWLNGKEYKCKVSNKALPAPIEKTISKAKGQPREPQVYTLPPSRDELTKNQVSLTCLVKGFYPSDIAVEWESNGQPENNYGTTPPVLWSDGSFFLYSMLTVDKSRWQQGNVFSCSVMHEALHNHYTQKSLSLSPGK
notes: also called B215 CH3B chain (yeast); not shown: flag-tag
In the case of B5, the binding result in assay [5] was “binds”.

B6: secreted FcCH3B, A241 (E357N), from yeast (other)
chain: TSPPSPAPELLGGPSVFLFPPKPKDTLMISRTPEVTCVVVDVSHEDPEVKFNWYVDGVEVHNAKTKPREEQYQSTYRVVSVLTVLHQDWLNGKEYKCKVSNKALPAPIEKTISKAKGQPREPQVYTLPPSRDNLTKNQVSLTCLVKGFYPSDIAVEWESNGQPENNYKTTPPVLDSDGSFFLYSKLTVDKSRWQQGNVFSCSVMHEALHNHYTQKSLSLSPGK
notes: also called A241 CH3B chain (yeast); not shown: flag-tag
Consider B6, for which the binding result in assay [6] is reported as “binds”.

B7: B168w/oW-VT (secreted FcCH3B from yeast) (other)
secreted Fc chain (hinge-CH2-CH3B): TSPPSPAPELLGGPSVFLFPPKPKDTLMISRTPEVTCVVVDVSHEDPEVKFNWYVDGVEVHNAKTKPREEQYQSTYRVVSVLTVLHQDWLNGKEYKCKVSNKALPAPIEKTISKAKGQPREPQVYTLPPSRDELTKNQVSLTCLVKGFYPSDIAVEWESNGQPENNYGTTPPVLDSDGSFFLYSMLTVDKSRWQQGNVFSCSVMHEALHNHYTQKSLSLSPGK
notes: also called B168w/oW-VT CH3B chain (yeast), K392G/K409M
Take B7: the binding result in assay [7] is “binds”.

B8: secreted FcCH3B, B235 (D399C/K392G/K409M), from yeast (other)
chain: TSPPSPAPELLGGPSVFLFPPKPKDTLMISRTPEVTCVVVDVSHEDPEVKFNWYVDGVEVHNAKTKPREEQYQSTYRVVSVLTVLHQDWLNGKEYKCKVSNKALPAPIEKTISKAKGQPREPQVYTLPPSRDELTKNQVSLTCLVKGFYPSDIAVEWESNGQPENNYGTTPPVLCSDGSFFLYSMLTVDKSRWQQGNVFSCSVMHEALHNHYTQKSLSLSPGK
notes: also called B235 CH3B chain (yeast); not shown: flag-tag
Turning to B8, the binding result in assay [8] is “binds”.
